Source: patent US20220380801A1, “TRIPARTITE SYSTEMS FOR PROTEIN DIMERIZATION AND METHODS OF USE” (priority 2019, published 2022)

Legend:
[1] = system: HCV NS3/4A PR D168E; assay: Biacore 8K binding kinetics, mutant protease to PRSIM_23; design: species or system Hepatitis C virus subtype 1a; conditions: 20 nM simeprevir
Description: (§1) The scFv and Tn3 PRSIM binding molecules were covalently immobilised to a CM5 chip surface using standard amine coupling techniques at a concentration of 1 μg/ml in 10 mM sodium acetate pH 4.5.
(§2) The HCV NS3/4A PR (S139A), or BSA control, was diluted 1:4 (1.25-20 nM)±10 nM simeprevir in 10 mM Hepes pH 7.4, 150 mM NaCl, 0.05% Surfactant P20, 0.01% DMSO, ensuring constant simeprevir and DMSO concentration. The samples were flowed over the chip at 50 μl/min using single cycle kinetics, with 120 sec association and 600 sec dissociation. The chip surface was regenerated with two 20 sec pulses of 10 mM Glycine-HCl pH 3.0. The final sensorgrams were analysed using the Biacore 8K Evaluation Software and the affinity constant KD was determined using a 1:1 binding model. The same method was used for measuring the affinity of the HCV NS3/4A PR mutants for PRSIM_23 with minor deviations. The mutants were diluted 1:4 (2.5-40 nM)±simeprevir in 10 mM Hepes pH 7.4, 150 mM NaCl, 0.05% Surfactant P20, 0.08% DMSO, ensuring constant simeprevir and DMSO concentration. The samples were flowed over the chip at 50 μl/min using single cycle kinetics, with 180 sec association and 600 sec dissociation.

[2] = system: HCV NS3/4A PR K136D; assay: as above; design: species or system Hepatitis C virus subtype 1a
Description: as §1, §2

[3] = system: HCV NS3/4A PR K136N; assay: as above; design: species or system Hepatitis C virus subtype 1a
Description: as §1, §2

[4] = system: luciferase gene expression in HEK293 cells; assay: AAV transduction, inducible luciferase transgene in trans; type: cell-based, human; conditions: two separate AAV8 preparations, simeprevir
Description: AAV expression vectors were generated by subcloning specific promoter and transgene elements into an intermediate vector derived from pAAV-CMV (Takara) in which the CMV promoter downstream of the 5′ITR was removed and a WPRE element and SV40 polyA sequence were inserted upstream of the 3′ ITR.
To generate AAV encoding an inducible luciferase transgene, the ZHFD1-luciferase cassette was amplified by PCR from pZFHD1-Luciferase provided in the iDimerize regulated transcription system (Takara) and subcloned into the intermediate AAV vector. […]
Recombinant AAV (rAAV) was produced by triple-transfection of 40 T-175 cm^2 flasks containing HEK293 T-17 cells at 80% confluency using a standard helper-free approach. […] Fractions were taken from the ultraclear centrifuge tubes by piercing the tube with a 19 gauge syringe in the 60% layer below the clear band representing the virus and the purity of each fraction was assessed by SDS-PAGE of each fraction and subsequent Sypro Ruby analysis. […]
All rAAV transduction assays were performed in adherent HEK293 cells cultured in 96-well plates. Cells enzymatically dissociated from a tissue culture flask were counted and plated at 2.5×10^4 cells/well in a 96-well plate. […] For luminescence assays, SteadyGlo luciferase substrate (Promega) was added and luminescence was quantified with an Envision plate reader. […]

B1: PRSIM_23: Tn3 protein specific for HCV NS3/4A PR (S139A):simeprevir complex, SEQ ID NO: 5 (protein)
chain: RLDAPSQIEVKDVTDTTALITWVDPRYDDIWWFELTYGIKDVPGDRTTIKLYLNDPYYSIGNLKPDTEYEVSLISYTGDSYSRSGSNPAKITFKTGL
modifications: PRSIM_23
B1 gave an Rmax [1] of 199 RUs, a ka [1] of 1.47e+09 M⁻¹ s⁻¹ and a kd [1] of 21.4 s⁻¹. For the same molecule, the “decrease in affinity for PRSIM_23 compared to ‘Wt’” value ([2]; K136D versus ‘WT’ (S139A)) was 6-7 fold, the Rmax ([2]; K136D, 800 nM simeprevir) was 168 RUs and the ka ([2]; K136D, 800 nM simeprevir) was 1.69e+10 M⁻¹ s⁻¹. The kd ([2]; K136D, 800 nM simeprevir) was 373 s⁻¹, the “decrease in affinity for PRSIM_23 compared to ‘Wt’” value ([3]; K136N versus ‘WT’ (S139A)) was 6-7 fold and the Rmax ([3]; K136N, 40 nM simeprevir) was 198 RUs. For the same molecule, the ka ([3]; K136N, 40 nM simeprevir) was 5.31e+08 M⁻¹ s⁻¹, the kd ([3]; K136N, 40 nM simeprevir) was 20.4 s⁻¹ and the “induction of luciferase activity” value [4] was 228 fold.
